The source of these data is ChEMBL document CHEMBL3576833, “Design and Synthesis of Acetylenyl Benzamide Derivatives as Novel Glucokinase Activators for the Treatment of T2DM” (ACS Med Chem Lett, 2015).

Compound in the data set: COC[C@H](C)Oc1cc(C#Cc2cccc(N)c2)cc(C(=O)Nc2ccn(C)n2)c1
The data set can be described thus: Activation of recombinant human pancreatic glucokinase using 10 mM glucose as substrate assessed as enzyme Vmax by G6PDH coupled assay.

B1: Hexokinase-4 (Homo sapiens), P35557 (protein)
chain: MLDDRARMEAAKKEKVEQILAEFQLQEEDLKKVMRRMQKEMDRGLRLETHEEASVKMLPTYVRSTPEGSEVGDFLSLDLGGTNFRVMLVKVGEGEEGQWSVKTKHQMYSIPEDAMTGTAEMLFDYISECISDFLDKHQMKHKKLPLGFTFSFPVRHEDIDKGILLNWTKGFKASGAEGNNVVGLLRDAIKRRGDFEMDVVAMVNDTVATMISCYYEDHQCEVGMIVGTGCNACYMEEMQNVELVEGDEGRMCVNTEWGAFGDSGELDEFLLEYDRLVDESSANPGQQLYEKLIGGKYMGELVRLVLLRLVDENLLFHGEASEQLRTRGAFETRFVSQVESDTGDRKQIYNILSTLGLRPSTTDCDIVRRACESVSTRAAHMCSAGLAGVINRMRESRSEDVMRITVGVDGSVYKLHPSFKERFHASVRRLTPSCEITFIESEEGSGRGAALVSAVACKKACMLGQ
As for B1, the Vmax turned out to be 126%.
